Data reported in article PMC6538746, “Rice transcription factor OsMADS57 regulates plant height by modulating gibberellin catabolism”.

Target: OsMADS57 (Oryza sativa, UniProt Q6Z6W2 1-241)
Test: EMSA; competed by unlabeled probe; LightShift Chemiluminescent EMSA Kit (Thermo); buffer, salt, pH and temperature not stated
Settings: protein: recombinant; tags: His (pET32a(+) vector-encoded tags); chain copies: 2; label: biotin 3' end; blunt

Chain of OsMADS57 (Q6Z6W2 whole entry): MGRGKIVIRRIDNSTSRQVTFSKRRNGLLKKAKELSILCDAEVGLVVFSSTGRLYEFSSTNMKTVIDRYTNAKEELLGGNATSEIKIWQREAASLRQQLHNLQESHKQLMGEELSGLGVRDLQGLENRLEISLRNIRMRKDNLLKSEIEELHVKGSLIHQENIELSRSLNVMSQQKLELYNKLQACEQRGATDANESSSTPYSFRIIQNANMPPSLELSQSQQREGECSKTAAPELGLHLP

Row | Binder | binding result
1 | OsGA2ox3 promoter CArG probe (dsDNA) DNA 1: TAGCACGAGGGAAAACCCTTTAAAAAGACAGACAAGGCAGACG DNA 2: CGTCTGCCTTGTCTGTCTTTTTAAAGGGTTTTCCCTCGTGCTA | binds
2 | EUI1 promoter CArG probe (dsDNA) DNA 1: GCCTTTCCCTTTGTTACTGTTGCATATAAAAGATCATCAATGT DNA 2: ACATTGATGATCTTTTATATGCAACAGTAACAAAGGGAAAGGC | binds
